5 molecules from patent US20210347913A1 (CRISPR THERAPEUTICS, published 2021) can be followed below.

Test [1] deals with T1, PTK7 on PTK7 positive cell line SaOS-2 (osteosarcoma) (UniProt Q13308 31-1070, limits assumed).
T1 sequence (looked up): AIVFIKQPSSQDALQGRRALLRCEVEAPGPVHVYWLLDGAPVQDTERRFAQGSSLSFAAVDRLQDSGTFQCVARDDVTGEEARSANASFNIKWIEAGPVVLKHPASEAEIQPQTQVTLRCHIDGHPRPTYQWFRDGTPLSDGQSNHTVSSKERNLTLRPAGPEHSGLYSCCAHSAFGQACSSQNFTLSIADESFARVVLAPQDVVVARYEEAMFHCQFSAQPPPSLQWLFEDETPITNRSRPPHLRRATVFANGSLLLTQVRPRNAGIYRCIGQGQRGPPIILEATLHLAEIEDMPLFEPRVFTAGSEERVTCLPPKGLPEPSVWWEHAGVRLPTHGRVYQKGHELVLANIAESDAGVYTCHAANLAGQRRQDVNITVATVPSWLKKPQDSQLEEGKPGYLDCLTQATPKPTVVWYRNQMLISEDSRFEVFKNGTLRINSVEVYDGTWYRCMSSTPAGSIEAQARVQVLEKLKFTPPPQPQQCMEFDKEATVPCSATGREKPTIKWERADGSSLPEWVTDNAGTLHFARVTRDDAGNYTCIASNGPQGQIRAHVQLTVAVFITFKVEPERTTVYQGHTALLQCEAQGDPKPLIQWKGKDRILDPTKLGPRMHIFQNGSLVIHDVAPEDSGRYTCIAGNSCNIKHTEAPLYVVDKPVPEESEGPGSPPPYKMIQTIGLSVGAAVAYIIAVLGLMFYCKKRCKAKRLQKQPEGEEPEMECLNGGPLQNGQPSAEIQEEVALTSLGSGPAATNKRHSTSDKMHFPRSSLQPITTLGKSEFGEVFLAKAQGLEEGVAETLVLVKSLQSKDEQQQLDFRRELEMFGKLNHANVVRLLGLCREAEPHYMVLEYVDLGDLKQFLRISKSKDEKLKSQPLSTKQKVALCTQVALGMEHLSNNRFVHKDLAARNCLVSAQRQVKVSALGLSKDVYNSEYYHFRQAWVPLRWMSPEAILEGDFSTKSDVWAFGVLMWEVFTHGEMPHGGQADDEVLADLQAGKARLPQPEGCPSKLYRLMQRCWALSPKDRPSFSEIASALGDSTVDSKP
In words: cell-based or functional assay.

Test [2] has as its target T1, PTK7 on PTK7 positive cell line SaOS-2 …. The experiment in a line: cell-based or functional assay. The source holds these as a separate data set.
Test [3] addresses T2, recombinant human PTK7.Fc (R and D Systems, catalog #9799-TK) (human, UniProt Q13308 31-704, limits assumed).
T2 construct: Bought reagent; also called soluble recombinant human PTK7.Fc; soluble antigen PTK7; not shown: Fc part of the bought fusion (detected with anti-human Fc)
T2 sequence (looked up): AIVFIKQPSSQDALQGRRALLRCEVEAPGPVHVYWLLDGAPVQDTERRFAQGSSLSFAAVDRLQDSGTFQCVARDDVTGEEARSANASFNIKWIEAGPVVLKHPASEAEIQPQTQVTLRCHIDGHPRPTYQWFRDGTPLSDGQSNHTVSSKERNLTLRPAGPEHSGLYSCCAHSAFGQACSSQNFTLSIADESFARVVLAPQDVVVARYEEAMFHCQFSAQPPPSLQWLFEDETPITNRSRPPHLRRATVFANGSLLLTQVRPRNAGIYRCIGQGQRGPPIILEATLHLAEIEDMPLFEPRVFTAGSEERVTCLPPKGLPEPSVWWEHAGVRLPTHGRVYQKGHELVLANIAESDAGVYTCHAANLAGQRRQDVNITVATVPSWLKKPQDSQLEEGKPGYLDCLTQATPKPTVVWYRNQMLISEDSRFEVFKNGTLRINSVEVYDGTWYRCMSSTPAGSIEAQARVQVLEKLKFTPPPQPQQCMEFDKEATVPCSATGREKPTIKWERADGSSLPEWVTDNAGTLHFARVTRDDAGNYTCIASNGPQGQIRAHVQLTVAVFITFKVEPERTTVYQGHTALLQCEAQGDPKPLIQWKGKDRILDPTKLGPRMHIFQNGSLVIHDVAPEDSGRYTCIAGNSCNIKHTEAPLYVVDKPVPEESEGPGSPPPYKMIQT
The experiment in a line: flow cytometry, percent of CAR T cells positive for 10 ug/mL PTK7.Fc. On the procedure:
In addition to detecting surface CAR expression, the ability of the CAR T cells and masked CAR T cells to detect target antigen was also determined. Live CAR T cells were gated by their forward scatter (FSC) and side scatter (SSC) profiles, and with DAPI dye (Invitrogen, catalog #: D3571). The cells were then stained with 10 μg/mL recombinant human PTK7.Fc (R and D Systems, catalog #9799-TK Lot DHMCO219041) as described above in Example 3, and with mouse anti-human.Fc conjugated to APC (Biolegend cat #409305) as secondary antibody for detection (FIG. 3).

Another test has as its target T3, anti-PTK7 antibody Ab181.
T3 construct: Unmasked parent IgG1kappa; also called Ab181 IgG1kappa
The experiment in a line: phage display selection of peptide binders of Ab181 (Screen 1, X15/X19 library).

B1: CTX181.M13 (other)
chain: QGCTYPPRFHMHWLCGSSGGSGGSGGSGGGPLGLAGGSSGQVQLVESGGGVVQPGRSLRLSCAASGFTFSSYGMHWVRQAPGKGLEWVAVIWDDGSNKYYVDSVKGRFTISRDNSKNTLYLQMNSLRAEDTAVYYCARDDYYGSGSFNSYYGTDVWGQGTTVTVSSGGGGSGGGGSGGGGSEIVLTQSPATLSLSPGERATLSCRASQSVSIYLAWYQQKPGQAPRLLIYDASNRATGIPARFSGSGSGTDFTLTISSLEPEDFAVYYCQQRSNWPPFTFGPGTKVDIKSAAAFVPVFLPAKPTTTPAPRPPTPAPTIASQPLSLRPEACRPAAGGAVHTRGLDFACDIYIWAPLAGTCGVLLLSLVITLYCNHRNRSKRSRLLHSDYMNMTPRRPGPTRKHYQPYAPPRDFAAYRSRVKFSRSADAPAYQQGQNQLYNELNLGRREEYDVLDKRRGRDPEMGGKPRRKNPQEGLYNELQKDKMAEAYSEIGMKGERRRGKGHDGLYQGLSTATKDTYDALHMQALPPR
notes: Masked chimeric antigen receptor on the surface of TRAC-/B2M- human T cells; entry without signal peptide
Regarding B1, in test [1], the “% Cell killing at E:T = 1:0.5” value came to 68.6% and the “% Cell killing at E:T = 1:1” value turned out to be 41.3%. Also, in test [2], the “IFNγ (pg/mL) at E:T = 1:0.5” value is 4860 pg/mL and the “IFNγ (pg/mL) at E:T = 1:1” value turned out to be 6170 pg/mL. Also, in test [3], the “% Antigen detection” value is 37.5%.

B2: CTX181.M14 (other)
chain: QGCTHVAQWAIKAFCGSSGGSGGSGGSGGGPLGLAGGSSGQVQLVESGGGVVQPGRSLRLSCAASGFTFSSYGMHWVRQAPGKGLEWVAVIWDDGSNKYYVDSVKGRFTISRDNSKNTLYLQMNSLRAEDTAVYYCARDDYYGSGSFNSYYGTDVWGQGTTVTVSSGGGGSGGGGSGGGGSEIVLTQSPATLSLSPGERATLSCRASQSVSIYLAWYQQKPGQAPRLLIYDASNRATGIPARFSGSGSGTDFTLTISSLEPEDFAVYYCQQRSNWPPFTFGPGTKVDIKSAAAFVPVFLPAKPTTTPAPRPPTPAPTIASQPLSLRPEACRPAAGGAVHTRGLDFACDIYIWAPLAGTCGVLLLSLVITLYCNHRNRSKRSRLLHSDYMNMTPRRPGPTRKHYQPYAPPRDFAAYRSRVKFSRSADAPAYQQGQNQLYNELNLGRREEYDVLDKRRGRDPEMGGKPRRKNPQEGLYNELQKDKMAEAYSEIGMKGERRRGKGHDGLYQGLSTATKDTYDALHMQALPPR
notes: as for B1
As to B2, in test [1], the “% Cell killing at E:T = 1:0.5” value was 52.8% and the “% Cell killing at E:T = 1:1” value came out at 29.5%. In addition, in test [2], the “IFNγ (pg/mL) at E:T = 1:0.5” value came to 1760 pg/mL and the “IFNγ (pg/mL) at E:T = 1:1” value came out at 1930 pg/mL. The “% Antigen detection” value in test [3] is 36.2%.
As to EVAPGKRWFYNHVKQVPHLV (Found by phage display (Screen 1)) [mask peptide P1], the binding result with anti-PTK7 antibody Ab181 is reported as “binds”.

B3: mask peptide P2 (peptide)
peptide: HEEVHMRPNKLSLTWAYTGPQLR
notes: Found by phage display (Screen 1); fused through a cleavable linker in the masked constructs
Consider B3, for which the binding result with anti-PTK7 antibody Ab181 is recorded as “binds”.

B4: CTX181.P1 (other)
chain: EVAPGKRWFYNHVKQVPHLVGSSGGSGGSGGSGGGPLGLAGGSSGQVQLVESGGGVVQPGRSLRLSCAASGFTFSSYGMHWVRQAPGKGLEWVAVIWDDGSNKYYVDSVKGRFTISRDNSKNTLYLQMNSLRAEDTAVYYCARDDYYGSGSFNSYYGTDVWGQGTTVTVSSGGGGSGGGGSGGGGSEIVLTQSPATLSLSPGERATLSCRASQSVSIYLAWYQQKPGQAPRLLIYDASNRATGIPARFSGSGSGTDFTLTISSLEPEDFAVYYCQQRSNWPPFTFGPGTKVDIKSAAAFVPVFLPAKPTTTPAPRPPTPAPTIASQPLSLRPEACRPAAGGAVHTRGLDFACDIYIWAPLAGTCGVLLLSLVITLYCNHRNRKRGRKKLLYIFKQPFMRPVQTTQEEDGCSCRFPEEEEGGCELRVKFSRSADAPAYQQGQNQLYNELNLGRREEYDVLDKRRGRDPEMGGKPRRKNPQEGLYNELQKDKMAEAYSEIGMKGERRRGKGHDGLYQGLSTATKDTYDALHMQALPPR
notes: Masked chimeric antigen receptor on the surface of TRAC-/B2M- human T cells; entry without signal peptide; also called masked anti-PTK7 CAR P1
Consider B4, for which, in test [1], the “% Cell killing at E:T = 1:0.5” value was found to be 92.7% and the “% Cell killing at E:T = 1:1” value stood at 79.1%. Further, in test [2], the “IFNγ (pg/mL) at E:T = 1:0.5” value turned out to be 13600 pg/mL and the “IFNγ (pg/mL) at E:T = 1:1” value stood at 20500 pg/mL. Besides, the “% Antigen detection” value in test [3] stood at 42.7%.
